Molecular target: recombinant mature rat IL-33 with N-terminal His-tag (rat) (UniProt Q66H70)
Experiment: cell-based or functional assay

Chain of recombinant mature rat IL-33 with N-terminal His-tag (rat) (Q66H70 109-264): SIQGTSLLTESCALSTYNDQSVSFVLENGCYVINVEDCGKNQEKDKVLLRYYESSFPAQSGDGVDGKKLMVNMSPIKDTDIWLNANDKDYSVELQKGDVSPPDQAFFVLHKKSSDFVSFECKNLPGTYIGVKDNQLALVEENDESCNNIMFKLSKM

NF-κB promoter activity (luciferase reporter, % increase) in neonatal rat cardiomyocytes: 42%
Substance: mouse soluble ST2 (R&D) (from UniProt P14719 27-337)
